Reference: patent US20190352413A1 (KYMAB, published 2019)

B1: Ky4 (16G05) (antibody, V domains shown)
VH: EVQLVESGGGLVQPGRSLRLSCAVSGFTFDDYAMHWVRQPPGKGLEWVSGISWNSGSIDYADSVKGRFTISRDNAKNSLYLQMNSLRAEDTALYYCAKDYYYDSSAYVLFDYWGQGTLVTVSS
VL: DIQMTQSPSSLSASVGDRVIITCRASQSISSYLNWYQQKPGKAPELLIYGASSLQSGVPSRFSGSGSGTDFTLTISSLQPEDFATYYCQQSFSTPLTFGGGTKVEIK
notes: Campaign KM058; In SPR and HTRF it was tested as hybridoma material (human variable regions, mouse constant regions; captured on anti-mouse IgG)
B2: Ky3 (15F11) (antibody, V domains shown)
VH: EVQLVESGGGLVQPGGSLRLSCAASGFTFGRYDMNWVRQTTGKGLEWVSAIGTAGDTYYPGSVKGRFTISRENAKNSLYLQMNSLRPGDTAVYYCARARPYYYDSGSYYHAPFDYWGQGTLVTVSS
VL: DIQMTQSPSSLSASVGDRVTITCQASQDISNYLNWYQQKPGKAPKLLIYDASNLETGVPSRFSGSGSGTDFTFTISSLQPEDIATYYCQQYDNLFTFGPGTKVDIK
notes: as for B1
B3: Ky2 (8C10) (antibody, V domains shown)
VH: EVQLVESGGGLVQPGRSLRLSCAASGFTFDDYAMHWVRQGPGKGLEWVSSISWNSGRIDYADSVKGRFTISRDNAKNSLYLQMNRLRAEDTALYYCAKDGFYDILTGSFFDYWGQGILVTVSS
VL: DIQMTQSPSSLSASVGDRVTITCRASQSISSYLNWYHQEPGKAPNLLIYGASSLQSGVPSRFSGSGSGTDFTLTISSLQPEDFATYYCQQSYSAPPEWTFGQGTKVEIK
notes: Campaign KM059; In SPR and HTRF it was tested as hybridoma material (human variable regions, mouse constant regions; captured on anti-mouse IgG)
B4: Ky1 (6D07) (antibody, V domains shown)
VH: QVQLVQSGAEVKKPGASVKVSCKASGYTFTSYGISWVRQAPGQGLEWMGWISAYNGNTNYKQKLQGRVTMTTDTSTSTAYMELRSLRSDDTAVYYCARGGSGRYYPWGQGTLVTVSS
VL: DIQMTQSPSSLSASVGDRVTITCRASQGIRNDLGWYQQIPGKAPKRLIYDASSLQSGVPSRFSGSGSGTEFTLTISSLQPEDFATYYCLQHNSYPFTFGPGTKVDIK
notes: as for B3
B5: Ky5 (15H06) (antibody, V domains shown)
VH: not shown
VL: AIQMTQSPSSVSASVGDRVTITCRASQGISSWLAWYQQKPGKAPKLLIYAASSLHSGVPSRFSGSGSETDFTLTISSLHPEDFATYYCQQSNSFPLTFGGGTKVEIK
notes: as for B1

Legend:
Human OPG-Fc [1] = biological target: T1, Human OPG-Fc (human); test: SPR (ProteOn XPR36), antibody captured on anti-mouse IgG, OPG-Fc as analyte, 25 C, 1:1 model
T1 construct: also called hOPG-Fc; human OPG (in-house)
T1 sequence (chain, as listed by the source limits assumed): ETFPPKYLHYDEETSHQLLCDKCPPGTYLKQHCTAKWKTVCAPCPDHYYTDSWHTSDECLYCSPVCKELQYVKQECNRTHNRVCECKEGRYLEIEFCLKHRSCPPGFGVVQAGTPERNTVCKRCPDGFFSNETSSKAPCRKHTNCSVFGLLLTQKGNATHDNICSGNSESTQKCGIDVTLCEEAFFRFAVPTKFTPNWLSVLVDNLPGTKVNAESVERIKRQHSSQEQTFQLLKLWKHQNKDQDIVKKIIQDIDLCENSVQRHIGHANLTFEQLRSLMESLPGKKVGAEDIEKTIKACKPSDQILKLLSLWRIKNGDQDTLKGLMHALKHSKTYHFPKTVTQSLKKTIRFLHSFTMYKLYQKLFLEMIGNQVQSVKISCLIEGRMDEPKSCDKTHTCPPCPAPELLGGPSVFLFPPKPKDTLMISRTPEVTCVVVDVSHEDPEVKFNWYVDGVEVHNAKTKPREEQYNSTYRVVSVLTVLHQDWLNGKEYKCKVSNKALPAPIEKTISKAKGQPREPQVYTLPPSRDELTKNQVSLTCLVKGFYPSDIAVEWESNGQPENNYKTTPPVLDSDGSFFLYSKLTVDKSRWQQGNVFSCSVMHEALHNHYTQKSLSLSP
Procedure: (§1) Affinity of secreted antibodies was assessed by testing hybridoma supernatants by Label-free surface plasmon resonance (SPR). This analysis was carried out on the ProteOn XPR36 (BioRad) array SPR machine. An anti-mouse IgG capture surface was created on a GLC biosensor chip using amine coupling of an anti-mouse IgG from GE Healthcare. Test antibodies were captured on this surface and human, rat and cyno OPG (in-house) was used as the analyte at 256 nM, 64 nM, 16 nM, 4 nM and 1 nM for Ky3 (15F11), Ky4 (16G05), 5A06, 25F06, 15B08 and 10B07 and at a single concentration of 100 nM for Ky1 (6D07) and Ky2 (8C10). The assay was carried out at 25° C. using HBS-EP (Teknova H8022). Buffer alone was used to reference the binding sensorgrams. The data was analysed using the 1:1 model inherent to the ProteOn XPR36 analysis software.

Rat OPG-Fc [2] = biological target: T2, Rat OPG-Fc (rat); test: as above
T2 construct: The entry begins with a signal peptide ('usually cleaved upon expression'); also called rat OPG (in-house)
T2 sequence (chain, as listed by the source limits assumed): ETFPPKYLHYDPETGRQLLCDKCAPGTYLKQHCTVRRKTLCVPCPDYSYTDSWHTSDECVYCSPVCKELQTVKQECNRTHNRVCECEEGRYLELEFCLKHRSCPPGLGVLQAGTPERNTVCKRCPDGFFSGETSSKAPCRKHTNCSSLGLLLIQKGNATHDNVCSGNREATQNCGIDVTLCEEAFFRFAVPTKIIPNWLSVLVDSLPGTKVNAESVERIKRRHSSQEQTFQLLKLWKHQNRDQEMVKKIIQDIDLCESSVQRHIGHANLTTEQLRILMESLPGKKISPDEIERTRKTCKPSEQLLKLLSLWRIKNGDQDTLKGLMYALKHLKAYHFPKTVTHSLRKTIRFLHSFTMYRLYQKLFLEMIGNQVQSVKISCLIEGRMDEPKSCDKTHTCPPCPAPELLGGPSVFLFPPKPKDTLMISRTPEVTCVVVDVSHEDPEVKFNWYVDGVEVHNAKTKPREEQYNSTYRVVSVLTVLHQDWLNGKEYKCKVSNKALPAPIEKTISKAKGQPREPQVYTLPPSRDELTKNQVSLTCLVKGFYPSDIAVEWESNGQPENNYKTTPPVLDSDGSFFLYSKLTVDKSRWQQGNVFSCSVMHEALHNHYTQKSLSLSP
Procedure: as §1

Cyno OPG-Fc [3] = biological target: T3, Cyno OPG-Fc (cynomolgus); test: as above
T3 construct: The entry begins with a signal peptide ('usually cleaved upon expression'); also called cyno OPG (in-house)
T3 sequence (chain, as listed by the source limits assumed): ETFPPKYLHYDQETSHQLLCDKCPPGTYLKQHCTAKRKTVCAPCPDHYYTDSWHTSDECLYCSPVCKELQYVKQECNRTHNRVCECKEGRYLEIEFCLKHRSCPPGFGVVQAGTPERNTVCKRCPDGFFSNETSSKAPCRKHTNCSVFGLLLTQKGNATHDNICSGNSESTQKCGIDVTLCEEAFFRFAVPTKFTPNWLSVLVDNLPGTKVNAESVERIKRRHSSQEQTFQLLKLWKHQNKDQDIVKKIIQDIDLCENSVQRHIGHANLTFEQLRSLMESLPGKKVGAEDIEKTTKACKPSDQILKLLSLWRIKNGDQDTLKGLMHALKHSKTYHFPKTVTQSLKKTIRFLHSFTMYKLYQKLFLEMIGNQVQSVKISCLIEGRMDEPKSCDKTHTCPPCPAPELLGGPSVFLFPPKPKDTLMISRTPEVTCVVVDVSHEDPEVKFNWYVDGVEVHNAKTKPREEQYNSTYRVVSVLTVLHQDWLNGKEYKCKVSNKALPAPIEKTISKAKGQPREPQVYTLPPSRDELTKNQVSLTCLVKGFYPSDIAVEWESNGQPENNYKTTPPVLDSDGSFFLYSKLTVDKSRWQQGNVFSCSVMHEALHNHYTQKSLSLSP
Procedure: as §1

Human OPG-Fc [4] = biological target: T1, Human OPG-Fc; test: SPR (ProteOn XPR36), antibody captured on anti-mouse IgG, OPG-Fc as analyte, 25 C, 1:1 model; apparent affinity
Rat OPG-Fc [5] = biological target: T2, Rat OPG-Fc; test: as above
Cyno OPG-Fc [6] = biological target: T3, Cyno OPG-Fc; test: as above
Human OPG-Fc [7] = biological target: T1, Human OPG-Fc; test: HTRF competition, purified antibody titrated from 120 nM against 20 nM OPG and 55.6 nM RANKL-647; remaining specific binding of RANKL
Human OPG-Fc [8] = biological target: T1, Human OPG-Fc; test: HTRF competition, purified antibody titrated from 120 nM against 4 nM OPG-Fc and 16 nM TRAIL-Flag; remaining specific binding of TRAIL
Human OPG-Fc [9] = biological target: T1, Human OPG-Fc; test: cell-based or functional assay
Cyno OPG-Fc [10] = biological target: T3, Cyno OPG-Fc; test: SPR (ProteOn XPR36); CNROR = cannot resolve off rate, no KD given
Human OPG-Fc [11] = biological target: T1, Human OPG-Fc; test: HTRF competition, purified antibody titrated from 120 nM against 4 nM OPG-Fc and 16 nM TRAIL-Flag; inhibition of TRAIL binding
Cyno OPG-Fc [12] = biological target: T3, Cyno OPG-Fc; test: SPR (ProteOn XPR36), antibody captured on anti-mouse IgG, OPG-Fc as analyte; CNROR = cannot resolve off rate, no KD given

| Binder | Kd (Human OPG-Fc [1]) [nM] | Kd (Rat OPG-Fc [2]) [nM] | Kd (Cyno OPG-Fc [3]) [nM] | Kd (Human OPG-Fc [4]) [nM] | Kd (Rat OPG-Fc [5]) [nM] | Kd (Cyno OPG-Fc [6]) [nM] | % Max Specific binding (Human OPG-Fc [7]) [%] | % Max Specific binding (Human OPG-Fc [8]) [%] | EC50 (read off the curve) (Human OPG-Fc [9]) [nM] | binding result (Cyno OPG-Fc [10]) | IC50 (Human OPG-Fc [11]) [nM] | binding result (Cyno OPG-Fc [12]) |
| --- | --- | --- | --- | --- | --- | --- | --- | --- | --- | --- | --- | --- |
| B1 | 0.18 | 1.3 | 0.166 | 0.18 | 1.3 | 0.17 | 65.1 | 50.7 |  |  |  |  |
| B2 |  | 0.12 |  |  | 0.12 |  | 27.1 |  | ~10 | binds | 1.4 |  |
| B3 | 0.1 | 7.39 |  | 0.1 | 7.39 |  |  | 20.1 |  | binds |  |  |
| B4 | 0.17 | 1.35 | 14.8 | 0.17 | 1.35 | 14.8 |  | 4.8 |  |  |  |  |
| B5 | 0.18 | 0.36 |  | 0.18 | 0.36 |  | 86.6 | 55.8 |  |  |  | binds |
